Experimental data from PMC3622683, “Purification, Gene Cloning, and Biochemical Characterization of a β-Glucosidase Capable of Hydrolyzing Sesaminol Triglucoside from Paenibacillus sp. KB0549” (PLoS ONE, 2013).

Key:
Conditions in all cases: pH 7.0, 37°C, potassium phosphate
purified protein [1] = substrate: O=[N+]([O-])c1ccc(O[C@@H]2O[C@H](CO)[C@@H](O[C@@H]3O[C@H](CO)[C@@H](O)[C@H](O)[C@H]3O)[C@H](O)[C@H]2O)cc1; assay: purified protein; assay type: biochemical, Paenibacillus relictisesami
purified protein [2] = substrate: O=[N+]([O-])c1ccc(O[C@@H]2OC[C@@H](O)[C@H](O)[C@H]2O)cc1; assay: purified protein; assay type: biochemical, Paenibacillus relictisesami
purified protein [3] = substrate: O=[N+]([O-])c1ccc(O[C@@H]2O[C@H](CO)[C@H](O)[C@H](O)[C@H]2O)cc1; assay: purified protein
purified protein [4] = substrate: O=[N+]([O-])c1ccc(O[C@@H]2O[C@H](CO)[C@@H](O)[C@H](O)[C@H]2O)cc1; assay: purified protein
[5] = substrate: OC[C@H]1O[C@@H](OC[C@H]2O[C@@H](Oc3cc4c(cc3[C@H]3OC[C@H]5[C@@H]3CO[C@@H]5c3ccc5c(c3)OCO5)OCO4)[C@H](O[C@@H]3O[C@H](CO)[C@@H](O)[C@H](O)[C@H]3O)[C@@H](O)[C@@H]2O)[C@H](O)[C@@H](O)[C@@H]1O; assay: HPLC of STG hydrolysis, initial velocities; assay type: biochemical, Paenibacillus relictisesami
Procedure: HPLC of STG hydrolysis, initial velocities on rPSTG (recombinant PSTG, STG-hydrolyzing β-glucosidase) | k cat and K m values of rPSTG for hydrolysis of STG were determined

B1: rPSTG (recombinant PSTG, STG-hydrolyzing β-glucosidase) (Paenibacillus relictisesami) (protein)
chain: MSERRDLKALISQMTLEEKASLCTGRDTWHTQPIERLGIPSVMMTDGPHGLRKQKAASDHLGLFDSVPSTCFPSAVGVASSWNRDLIERMGQALGKECQAENVAVLLGPGANIKRSPLCGRNFEYFSEDPYLSSEMAAHHIMGVQSQGVGTSLKHFAANNQEYRRMTSDSVVNERTLREIYLTSFEGAVKKARPWTVMCSYNKVNGEYAAENERLLTGILKQEWGHEGFVVSDWGAVNDRVKSLAAGLELEMPHEGAGTKQIIEAVESGQLAEEKLDLAVERLLTVIFRSVDQHKEGAVYDPEAHHKLAREIAAESMVLLKNEDRILPLKREGTIAVIGELAKVPRYQGSGSSQIKPTRLDDIVFELAASAGEHARVTYTQGYDLKSDDINAVLTEEALQAAKEASVAVLFAGLPKRYESEGFDRKHMRMPDNQIALIEAVAAVQPNLVVVLCNGAPIEMPWLPQAKAVLEAYLGGQALGGAIADLLFGDANPSGKLAETFPVQLSDNPSFLNFPGEGDRVEYREGLFVGYRYYDKKQLRPLFPFGHGLSYTTFAYSNLSVDKKEILDTETLKVCVNVKNTGERAGKEIVQLYVRDVESSVIRPLKELKGFDKVFLAPGEEKTLTFELGKRSFAYYDPSIKDWMVETGAFEILIGRSSQDIVLAETVMVRSTVSRKIVYHRNSTVADLMLTEKGAAFAQKLRGMIPFGETVGEEYAEMLEAFKESVPLRGLISFSAGRFTEEDLSKLLEYLNG
notes: full-length 753 aa, 83,298 Da, no signal peptide; expressed from pDEST17 in E. coli BL21-AI, HisTrap purified (tag cleavage not mentioned); likely tetramer, 310 kDa; GH3
Protein B1 has a Km (purified protein [1]) of 230 ± 40 µM, a kcat (purified protein [1]) of 0.47 ± 0.03 s⁻¹ and a kcat/Km (purified protein [1]) of 2040 M⁻¹ s⁻¹. It also gave a Km (purified protein [2]) of 35700 ± 12200 µM, a kcat (purified protein [2]) of 69 s⁻¹ and a kcat/Km (purified protein [2]) of 1930 M⁻¹ s⁻¹. For the same protein, the Km (purified protein [3]) was 29000 ± 7000 µM, the kcat (purified protein [3]) was 2.06 s⁻¹ and the kcat/Km (purified protein [3]) was 71 M⁻¹ s⁻¹. It also gave a Km (purified protein [4]) of 100 ± 10 µM, a kcat (purified protein [4]) of 44.3 s⁻¹ and a kcat/Km (purified protein [4]) of 426000 M⁻¹ s⁻¹. It also gave a Km [5] of 1400 ± 400 µM and a kcat [5] of 9.3 ± 0.8 s⁻¹.
